Substrate in data set [1]: C[C@@H](N)C(=O)O
Put plainly: racemization assay, HPLC of derivatized L- and D-Ala. The data set is classed as biochemical, Streptomyces coelicolor. Particulars: D- to L-Ala direction.

Substrate in data set [2]: C[C@H](N)C(=O)O
The data set is described as above. The class given is biochemical, Streptomyces coelicolor. As to conditions: L- to D-Ala direction.

B1: AlrSco (alanine racemase from Streptomyces coelicolor A3(2), SCO4745) (Streptomyces coelicolor A3(2)) (protein)
chain: MSETTARRDADAVLRARAEIDLAALRANVRALRERAPGAALMAVVKADAYGHGAIPCARAAVAAGATWLGTATPQEALALRAAEPGLPDDVRIMCWLWTPGGPWREAVEARLDVSVSAMWAMEEVTGAARAAGVPARVQLKADTGLGRGGCQPGADWERLVGAALRAEEEGLLRVTGLWSHFACADEPGHPSIAAQLTRFREMTAYAEQRGLRPEVRHIANSPATLTLPDAHFDLVRPGIAMYGVSPSPEIGTPADFGLRPVMTLAASLALVKQVPGGHGVSYGHHYTTPGETTLGLVPLGYADGIPRHASSSGPVLVDGKWRTVAGRIAMDQFVVDLGGDRPEPGAEAVLFGPGDRGEPTAEDWAQAAGTIAYEIVTRIGSRVPRVYVNE
With B1, the values for the Km in data set [1] and in data set [2] were 8.9 mM and 6.3 mM, respectively.

A word on the Km: it is the substrate concentration at which the rate is half of its maximum.

Values taken from paper doi:10.1101/089938v2.
